Assay results: patent publication US5591427A, “Human Interleukin-3(Il-3) variants and their use to promote or antagonize IL-3-mediated processes” (Medvet Science Pty. Ltd., priority 1979, dated 1997)

Biological target: T1, IL-3R α chain and β chain (Homo sapiens, UniProt P26951+P32927)
T1 construct: amplify the complete coding region of the IL-3R alpha chain; also to amplify the coding region of the IL-3R α chain; expressed in transfected cells; host or cells: COS cells (pCDM8 vector, electroporation)
T1 sequence (P26951 19-378): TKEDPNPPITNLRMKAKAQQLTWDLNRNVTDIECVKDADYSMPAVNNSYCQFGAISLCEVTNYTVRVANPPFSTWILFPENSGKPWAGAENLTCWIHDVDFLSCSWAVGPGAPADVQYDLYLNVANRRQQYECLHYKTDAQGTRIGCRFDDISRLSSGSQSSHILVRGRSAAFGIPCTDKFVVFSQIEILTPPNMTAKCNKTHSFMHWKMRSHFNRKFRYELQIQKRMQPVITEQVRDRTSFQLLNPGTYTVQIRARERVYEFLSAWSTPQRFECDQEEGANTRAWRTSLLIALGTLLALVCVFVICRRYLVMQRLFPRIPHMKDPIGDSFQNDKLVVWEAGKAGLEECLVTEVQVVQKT
T1 sequence (P32927 17-897): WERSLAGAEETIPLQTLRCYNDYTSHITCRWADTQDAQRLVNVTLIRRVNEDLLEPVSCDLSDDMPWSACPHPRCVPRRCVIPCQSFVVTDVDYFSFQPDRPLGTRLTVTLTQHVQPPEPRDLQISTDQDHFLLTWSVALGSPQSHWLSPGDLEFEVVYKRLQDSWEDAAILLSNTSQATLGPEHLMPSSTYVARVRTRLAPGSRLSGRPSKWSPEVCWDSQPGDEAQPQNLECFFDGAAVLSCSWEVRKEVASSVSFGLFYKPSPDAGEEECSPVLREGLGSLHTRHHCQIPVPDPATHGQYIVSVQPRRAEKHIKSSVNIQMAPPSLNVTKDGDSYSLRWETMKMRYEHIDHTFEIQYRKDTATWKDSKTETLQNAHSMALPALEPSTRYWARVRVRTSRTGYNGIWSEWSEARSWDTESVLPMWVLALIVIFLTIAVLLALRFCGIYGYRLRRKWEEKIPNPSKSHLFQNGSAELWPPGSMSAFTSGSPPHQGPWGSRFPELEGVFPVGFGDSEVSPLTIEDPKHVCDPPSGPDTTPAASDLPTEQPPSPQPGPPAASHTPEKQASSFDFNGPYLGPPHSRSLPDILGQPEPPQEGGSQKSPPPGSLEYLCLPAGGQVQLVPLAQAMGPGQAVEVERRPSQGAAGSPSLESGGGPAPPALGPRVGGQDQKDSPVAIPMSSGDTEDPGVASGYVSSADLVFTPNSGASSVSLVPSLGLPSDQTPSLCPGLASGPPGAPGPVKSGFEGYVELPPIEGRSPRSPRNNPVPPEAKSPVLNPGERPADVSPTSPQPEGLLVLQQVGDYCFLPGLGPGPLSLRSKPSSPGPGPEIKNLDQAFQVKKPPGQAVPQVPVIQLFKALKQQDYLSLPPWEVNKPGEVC
Assay: Competition for 125I-IL-3 binding to reconstituted IL-3 high affinity receptor (α and β chains) in COS cells
Excerpt: PolyA+ RNA was isolated from the human cord blood cell line KMT2. Oligo dT primed double stranded cDNA was synthesised and used as template for PCR amplification. The PCR primers were designed to amplify the complete coding region of the IL-3R alpha chain and also to amplify the coding region of the […]. The PCR products were cloned into the vector pGEM-2 for sequence verification, and then into the eukaryotic expression vector, pCDM8. The […]-containing plasmid was transfected into COS cells by electroporation, either on its own or in conjunction with the […], and after two days the cells were used for binding studies.

B1: M37: human IL-3 mutant, Asp 101 replaced by Ala and Lys 116 by Val (protein, UniProt P08700 20-152, looked up, variant D101A K116V)
Interleukin-3: APMTQTTPLKTSWVNCSNMIDEIITHLKQPPLPLLDFNNLNGEDQDILMENNLRRPNLEAFNRAVKSLQNASAIESILKNLLPCLPLATAAPTRHPIHIKAGDWNEFRRKLTFYLVTLENAQAQQTTLSLAIF
- fold higher affinity than wild type IL-3 (COS cells transfected with IL-3R α chain and β chain cDNAs, E. coli produced protein): 15 fold
- binding to cotransfected α and β chains (FIG. 7): higher affinity
